The source of these data is patent US11434278.

This assay has as its target 5T4 antigen on the cell surface (A431 cells and 5T4 over-expressing recombinant MDA-MB-231 cells) (human) (UniProt Q13641). Put plainly: flow cytometry (MFI) on 5T4-expressing cells, anti-Fc FITC detection. In general terms: In flow cytometry, cells or beads pass a laser one at a time.

Chain of 5T4 antigen on the cell surface (A431 cells and 5T4 over-expressing recombinant MDA-MB-231 cells) (human) (Q13641 32-420): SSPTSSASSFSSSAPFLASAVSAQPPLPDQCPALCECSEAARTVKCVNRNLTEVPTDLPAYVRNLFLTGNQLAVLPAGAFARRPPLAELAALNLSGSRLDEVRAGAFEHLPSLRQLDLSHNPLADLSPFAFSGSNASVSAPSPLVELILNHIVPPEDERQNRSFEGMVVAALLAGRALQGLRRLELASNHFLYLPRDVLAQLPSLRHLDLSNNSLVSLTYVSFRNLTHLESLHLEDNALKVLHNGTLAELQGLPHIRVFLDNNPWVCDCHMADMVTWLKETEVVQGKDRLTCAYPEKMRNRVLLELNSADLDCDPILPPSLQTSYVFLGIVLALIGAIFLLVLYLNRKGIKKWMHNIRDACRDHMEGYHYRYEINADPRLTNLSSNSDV

With non-binding scFvFc fusion protein, the fold less binding than the anti-5T4 scFvFc molecules was determined as 200 fold less.
